Measured values taken from the supplement of paper PMC9170038.

Test system: MS2 coat protein
Assay: apparent KD of MS2 coat protein; designed switch direction (-1 OFF switch, 1 ON switch): -1; higher = weaker reporter binding
Outline: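 On Illumina chips, designed RNA switches with common flanks were made by stalled E. coli RNA polymerase. Titrations with SNAP-549-labelled MS2 coat protein, doubling from 0.7 or 1.5 nM to 3 µM, were done with no input, with 200 uM small-molecule ligand, or with an oligonucleotide input. Apparent KD is the median per design over clusters, from curve fits of normalised cluster fluorescence.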

[1] = Eterna round: R95, input ligand: FMN 200 uM
[2] = Eterna round: R95, input ligand: microRNA oligo, concentration not stated
[3] = Eterna round: R95, input ligand: none
[4] = input ligand: microRNA oligo, concentration not stated

Sequence	apparent KD of MS2 coat protein [1] [nM]	apparent KD of MS2 coat protein [2] [nM]	apparent KD of MS2 coat protein [3] [nM]	apparent KD of MS2 coat protein (input ligand: FMN 200 uM) [nM]	apparent KD of MS2 coat protein (input ligand: none) [nM]	apparent KD of MS2 coat protein [4] [nM]
UUUAAUUUUUUUUUUUUACAAGCUUUUUGCUCGUCUUAUACAUGAGGAUCACCCAUGUGGGUAGAAGAUAAAUUAUC [JMF 6] (puzzle: Sensor v3, turn-off variant 2)	46.4	81.8	37.4			
CUAACAUGCUGGUGAUCAUACAUGAGGAUCACCCAUGUAACAAGCUUUUUGUUCGUCUUAAUUUAAUUGAUUACUAG [Stov1/8-B3] (Eterna round: R97, puzzle: Sensor, turn-off variant 1)				177	254	
UGAUCUUGUGUCAGGAUAUGCUGGUCUCCUCUCCAGCAGAAGGGACAUGAGGAUCACCCAUGUUCUCUCUUUUU [Magic-11] (puzzle: Brourd's mod of Exclusion 4)		11.5				
CCGAAAUCCUAGGAUAUGCUAGACGAAAGUCUAGCAGAAGGAGGAACAUGAGGAUCACCCAUGUGUCCUAUCGG [Mat - Exclusion 6 - Eli Mod - D30] (Eterna round: R97, puzzle: Exclusion 6)				23.1	15.8	
AUAAGGUCAGGAUAUGCUUGGCGGAUUCUGGUGUCCAAAUGACAUGAGGAUCACCCAUGUAGAAGGGACAUCAG [Leonlexe] (Eterna round: R97, puzzle: Exclusion 2)				12.4	14.1	
AAAAAACAUGAGGAUCACCCAUGUGAGGAUAUCUGUAUUCAAUCCUCGGAUUGAAUACAGAGAAGGCACAUGGG [Ex1: 609] (Eterna round: R96, puzzle: Exclusion 1)				48.5	27.8	29.2
AAGAAACAUGAGGAUCACCCAUGUGAGGAUAUGACGAAGAAAAGAAAAGAAAGAAGACUCAGAAGGCACAAAGG [salish99-ex1_r3_076] (puzzle: Exclusion 1)	48	26.7	43.4			
GUGUUACAAGUGAGGAUAUCUGCUUUGGUAGAAGCGGAGAAGGCACAUGAGGAUCACCCAUGUCAGGAGUCCAU [Eternabot (L2) Solution 20] (Eterna round: R97, puzzle: Brourd's mod of Exclusion 4)				393	59.3	
CAUAUUCGAGGAUAUGCCUGAUGUCCUUAUGGAGCCCAUUCACAUGAGGAUCACCCAUGUAGAAGGCGGAUGCG [Eternabot (L1) Solution 37] (Eterna round: R97, puzzle: Exclusion 2)				31.2	24.8	
AAUUUACAUGAGGAUCACCCAUGUGAGGAUAUAUGUUUUAAUUUUUUUUUUUUUUUUCAUAGAAGGCGCGUGAU [JR_Exc1_Sub047] (Eterna round: R97, puzzle: Exclusion 1)				49.4	43.5	
AUAAUGUAAGGAUAUCAGUCGUACAGCUUCGGCUGUACGACUGAGAAGGUACAUGAGGAUCACCCAUGUGAUCA [E4/8-A1] (Eterna round: R97, puzzle: Exclusion 4)				185	1680	
GGCCUGUUAGGAUAUUAGUAGUAGUCAGAAAAGACUAUUACUGAGAAGGAACAUGAGGAUCACCCAUGUUGGCC [Mat - Exclusion 4 - Eli Mod - D39] (Eterna round: R97, puzzle: Exclusion 4)				17.2	17.4	
CUUAGCCUAAAAUCACGCAAGCUUUCUGCUUGUCUUAAGACAUGAGGAUCACCCAUGUCCGGGCUGAACUUAUGGAA [Inve] (puzzle: Sensor v3, turn-off variant 2)	18.8	22.5				
GUCCUACAUGAGGAUCACCCAUGUAAGGAUAUGCUAGCGGUCGGAUGACUGACUGCUAGCAGAAGGUACAUGAU [Mat - Mod of JL D78] (puzzle: Exclusion 1)		15.5				
AGUCGAAAGACAAAUAAAAACAUGAGGAUCACCCAUGUAAUGGGUGAAAACAAGCUCACCGUUCGUCUUAAAGAAAA [JL turnoff v1 57] (Eterna round: R96, puzzle: Sensor v2, turn-off variant)				607	302	40.7
GCUUAUAGAGGAUAUACAGAUUAUUACAUGAGGAUCACCCAUGUUCUUCAAUGUAUAUAUGUAGAAGGCUAAGGAG [Mat - Exclusion 5 - JL Mod - D11] (Eterna round: R97, puzzle: Exclusion 5)				175	63.2	
UUAUAUAGUGUGAGGAUAUGCUGGUCCUUGGAUCAGCAGAAGGCACAUGAGGAUCACCCAUGUAGUUAAUUUUA [JL bmx4 3.03] (puzzle: Brourd's mod of Exclusion 4)	118	25.2	29			

Sequence	apparent KD of MS2 coat protein [1] [nM]	apparent KD of MS2 coat protein [2] [nM]	apparent KD of MS2 coat protein [3] [nM]	apparent KD of MS2 coat protein (input ligand: FMN 200 uM) [nM]	apparent KD of MS2 coat protein (input ligand: none) [nM]	apparent KD of MS2 coat protein [4] [nM]
UCUCGACAUGAGGAUCACCCAUGUCAGGAUAUUGUGUUUGAGGUUUUUUACCUUUUGGCAAGAAGGGAUGUGUG [LRO-Excl1-21] (puzzle: Exclusion 1)		24.9				
UUUAGUUCAGGAUAUGUAGAUUUUAACAUGAGGAUCACCCAUGUAGAUCCUGAUCCUGCUACAGAAGGGAAGAUUU [Mat - Exclusion 5 - Eli Mod - D7] (Eterna round: R97, puzzle: Exclusion 5)				22.3	23.9	
AAUAACAAGCCGAUCCUCCACAUGAGGAUCACCCAUGUGUUCGUCUUGUAAAGUACUAUCACGAAAGUGAUAGUACA (Eterna round: R97, puzzle: Sensor, turn-off variant 1)				23	30.5	
UAAGAUUACCGAGGAUAUGCUGGUUUCUCUCAAGCAGAAGGCGGACUCAACAUGAGGAUCACCCAUGUAAGACGGGUACUAGAU [Ex NG1 #11] (Eterna round: R96, puzzle: Exclusion NG 1)				133	574	76.6
ACACAAAGCUAGGAUAUCGAGGCAUCUUCGGCCCGAGAAGGAGCCACAUGAGGAUCACCCAUGUGGUGAUCCUG [eternacac ex6r4 sub4] (Eterna round: R97, puzzle: Exclusion 6)				100	121	
AAGGGUACUUUCAGAACGACAUGAGGAUCACCCAUGUAGACUGAGGAUAUCUACUUCUAAGGACGGGAGAAGGCAGUGUAAUGU [Ex NG3 #72] (Eterna round: R96, puzzle: Exclusion NG 3)				11.4	13.5	10.7
AAAAGGUCAGGAUAUCCAAGAAAAGAAAAGAAAAGAAAAGAGGAGAAGGGACAUGAGGAUCACCCAUGUAAAAG [Default title] (puzzle: Exclusion 4)	39	42.7	38			
AAAUAGUAGCAGGAUAUGAGUAUUAUUGGAAGCUCAGAAGGGCUGACAUGAGGAUCACCCAUGUGUUAUGUCGG [Eternabot (L1) Solution 54] (Eterna round: R97, puzzle: Exclusion 6)				49.1	177	
CAUACUGAAGUUAGGAUAUGCGGCCGAAUACGGAUGUAGAAGGGACAUGAGGAUCACCCAUGUAGAUAGUAAAG [EX-4 Malc #15] (puzzle: Brourd's mod of Exclusion 4)	20.8	20.1	20.5			
CCCACAUGAGGAUAUCCAUCUGGAUCAGACAAGAUCCUGAUGGAGAAGGUACAUGAGGAUCACCCAUGUGUGGG [Mat - Exclusion 4 - Eli Mod - D60] (Eterna round: R97, puzzle: Exclusion 4)				189	267	
CUGCUCCGUGUAGGAUAUGCAUACUCCCAUUAUGCAGAAGGACAUGAGGAUCACCCAUGUAUGUUAUUAUCAUGUGUUGCGUAC [Design 13] (Eterna round: R96, puzzle: Exclusion NG 1)				250	38.5	29.5
UUAGUGUAAGGAUAUCCUAUUACGAAGUAGCAACGGUAGAGGGAGAAGGUACAUGAGGAUCACCCAUGUGUCGC [Eternabot (L2) Solution 38] (Eterna round: R97, puzzle: Exclusion 4)				26.3	24.5	
CACCGUUACCUAGGAUAUAGUACAUGAGGAUCACCCAUGUAAUAAAUGAGAAUUUCGGAUGUAUGCUAGAAGGAGGAAAUCGGC [Ostricism 49 - Jieux - Exclusion NG 2] (Eterna round: R96, puzzle: Exclusion NG 2)						29.7
CUGGUCCGAGGAUAUAUUAAGUGAUACAUGAGGAUCACCCAUGUAAUUUGAUGGAAAUAAAUAGAAGGCGGACUAG [Mat - Exclusion 5 - JL mod - D44] (puzzle: Exclusion 5)	34.2	45.9	53.4			
UUGUUGUAUGUAGGAUAUGCAUAUUAUUAUUAUGCAGAAGGACAUGAGGAUCACCCAUGUAUGUUAUUAUUAUAUGUUAUGUGU [Title] (Eterna round: R96, puzzle: Exclusion NG 1)						32
ACAUGUCCUGAGGAUAUCAAAGUCCUCCCGACAUGAGAAGGCAGGACAUGAGGAUCACCCAUGUGGAGCAGGGA [Aarorbeti] (Eterna round: R97, puzzle: Exclusion 6)				420	111	
CGGCAUGUCUGAGGAUAUCUGCACGAUUAGUGCAGAGAAGGCAGAACAUGAGGAUCACCCAUGUAGAUCAUUAACCGAUUAAUU [ENG1/7-A1] (Eterna round: R96, puzzle: Exclusion NG 1)				275	194	127
